From patent US20170184612A1, “USE OF LEUKOCYTES AND NOVEL BIOMARKERS IN THE DIAGNOSIS, CONFIRMATION, AND TREATMENT OF A NEUROLOGICAL DISORDER” (The Trustees of Columbia University in the City of New York, priority 2014, published 2017)

Biological target: SIINFEKL-MHC-I (SIINFEKL peptide bound to MHC-I H-2Kb) (chicken; mouse)
Test: cell-based or functional assay

## T cell receptor of OT-1 CD8+ T cells (TCR)
  neuronal death (TH+ neurons killed by CTLs): 55%
